No end group written: not given here.

The target in data set [1] is T1, Aβ1-42 peptide (Homo sapiens, UniProt P05067). The conditions noted are these: for ThT fluorescence intensity over time vs Aβ1-42 alone: 44.30 μmol/L with Aβ1-42 11.07 μmol/L, 37° C., 12 h to 7 d; for dose dependence of effect on Aβ fibril formation / most effective concentration for inhibition of Aβ fibril formation: 10-100 μmol/L with Aβ1-42 11.07 μmol/L; for dose dependence of effect on Aβ fibril formation / effect on Aβ1-42 aggregation and fibril formation (ThT, FIG. 2) / most effective concentration for inhibition of Aβ fibril formation / Inhibition (%) of Aβ aggregation: 37° C. for 24 h; for effect on Aβ1-42 aggregation and fibril formation (ThT, FIG. 2) / Inhibition (%) of Aβ aggregation: Aβ1-42 11.07 μmol/L, test substance 44.30 μmol/L; for most effective concentration for inhibition of Aβ fibril formation: dose-effect; for Inhibition (%) of Aβ aggregation: Aβ1-42 alone = 100% fluorescence. The procedure: 2. […] Each solution was incubated at 37° C. for 24 h, and 10 μl was taken out from each group and added into 990 μl of 3.0 μmol/L ThT phosphate buffer. ThT fluorescence intensity was measured at the excitation wavelength of 453 nm and emission wavelength of 478˜486 nm.
3. The dose-effect and time-effect relationships of the polypeptides of the invention on Aβ1-42: polypeptide H102 was formulated in PBS (as described above) to obtain a series of concentrations, and Aβ1-42 was added into the solutions to the concentration of 11.07 μmol/L. The resulted solutions were incubated at 37° C. for 24 hours, and samples were taken and measured for ThT fluorescence intensity, in order to determine the dose-effect relationship of the polypeptides of the invention on Aβ1-42. Solutions containing H102 of 44.30 μmol/L and Aβ1-42 of 11.07 μmol/L, or Vitamin E of 44.30 μmol/L and Aβ1-42 of 11.07 μmol/L, respectively, were incubated at 37° C. Samples were taken and measured for ThT fluorescence intensity at the time points of 12 hours (12 h), 1 day (1 d), 3 days (3 d), 5 days (5 d) and 7 days (7 d) after the incubation, in order to determine the time-effect relationships of various polypeptides on Aβ1-42.

Data set [2] concerns human neuroblastoma SH-SY5Y cells. Nature of the data set: Cytotoxicity test (MTT): viability of SH-SY5Y cells incubated with Aβ1-42. The data set is classed as cell-based. The conditions noted are these: 72 hours. How it is done:
5. Cytotoxicity test: a commonly-used cell line, human neuroblastoma SH-SY5Y, was used in the assay of cytotoxcity, which was purchased from Xuanwu Hospital of Capital Medical University and cultured in MEM medium (supplemented with 10% (v/v) fetal bovine serum) by conventional methods, in a 37° C., 5% CO2 incubator. The cell line was subcultured once every 5 days. When the SH-SY5Y cells grew stably in the logarithmic phase, the cells were inoculated into a 96 well plates (Costar) in a density of 1.0×10^4/ml, with 200 μl of medium added per well. After 24 hours, the medium was replaced by serum-free medium, and Aβ1-42 was added to the concentration of 5 μmol/L. The wells were divided into several groups. […] At 72 hours after the addition of the polypeptides, 20 μl of 3-(4,5-dimethyl-2-thiazolyl)-2,5-diphenyltetrazole bromide (MTT) (5 mg/ml) was added into each well, and the plate was incubated at 37° C. for 4 hours. Then the original culture medium was discarded, and 200 μl of DMSO was added into each well. The plate was left to stand for 10 min and then shaken for 1 min, allowing the Formazane particles to be completely dissolved. Then the optical density (OD) at 492 nm was measured on an automatic microplate reader.

In data set [3] the test system is APP 695 transgenic mice. Nature of the data set: Immunohistochemical staining of hippocampal CA1 neurons (anti-APP N-terminal and anti-Aβ antibody) in APP 695 transgenic mice. The following applies: intracerebroventricular 3 μl of 40 μmol/L daily for 10 days. Format: in vivo. The text has this: (§1) Experimental animals: thirty APP 695 transgenic mice of nine-month-old and ten C57BL/6J mice which are matched in genetic background and age, were all purchased from the experimental animal research center of Peking Union Medical College, Chinese Academy of Medical Sciences.
(§2) Animal grouping and model preparation: the thirty APP 695 transgenic mice were randomly divided into model group of 15 mice and the polypeptide-injected group of 15 mice. Ten C57BL/6J mice were used as a normal control group. For the polypeptide-injected group, the animals were received intracerebroventricular injection of 3 μl of saline solution containing H102 of 40 μmol/L each time. For the control group and model group, the animals were received intracerebroventricular injection of 3 μl of normal saline solution each time. The injection was carried out daily for 10 days. All animals were kept in the same conditions in SPF-grade mice room in the experimental animal research center of Tianjin Medical University
(§3) The animals were anaesthetized intraperitoneally by 10% chloral hydrate at a dose of 400 mg/Kg weight. The animals were fixed on a brain stereotaxic frame, and the hair was cut off. After disinfection with Anerdian, the skin was incised along the midline of the head for about 1 cm. The periosteum was stripped to expose the bone marks. […]

The subject of data set [4] is APP 695 transgenic mice. Nature of the data set: Congo Red staining of amyloid plaques in temporal cortex and hippocampus of APP 695 transgenic mice. The following applies: intracerebroventricular 3 μl of 40 μmol/L daily for 10 days. The data set is classed as in vivo.
Excerpt: as §1, §2, §3

Data set [5] concerns the target T1, Aβ1-42 peptide. Nature of the data set: Electron microscopy of Aβ1-42 fibril formation. Format: biochemical. Set-up: Reagents: Aβ1-42 (purity >98%); purchased Sigma-Aldrich, Inc. The conditions noted are these: peptide 44.30 μmol/L with Aβ1-42 11.07 μmol/L, 37° C., 5 days; for length of formed Aβ fibrils: Aβ alone about 0.5 to 5 μm; for diameter of formed Aβ fibrils: Aβ alone about 8 to 10 nm. How it is done:
4. […] Samples of 5 μl were taken from each group, dropped onto a 300-mesh deionized copper mesh with carbon support film, and left to stand at room temperature for 15 min. The samples were negatively stained in dark by 2% uranyl acetate for 2 min. After drying, the samples were observed under a transmission electron microscope.

Regarding HKQLPFFEED [H102], in data set [1], the “T1/2, time point at which the fluorescence intensity reaches the half-peak” value is recorded as “fourth day”; the “ThT fluorescence intensity over time vs Aβ1-42 alone” value is listed as “significantly weaker at each time point”; the “dose dependence of effect on Aβ fibril formation” value was “dose-dependent”; the “effect on Aβ1-42 aggregation and fibril formation (ThT, FIG. 2)” value was “remarkably inhibit”. The “most effective concentration for inhibition of Aβ fibril formation” value in data set [1] is given as “about 20 μmol/L”. For the same substance, the “effect on viability of SH-SY5Y cells” value in data set [2] (10, 20 and 40 μmol/L with Aβ1-42 5 μmol/L) is “most effective to improve the viability of cells”. The “optimal concentration to improve the viability of cells” value in data set [2] (Aβ1-42 5 μmol/L) is 20 µmol/L. Also, the “amount of Aβ1-42 positive cells in brain CA1 area vs model group” value in data set [3] is reported as “much lower than that of the model group”. The “amyloid plaques (Congo red) vs transgenic model group” value in data set [4] is “much lower in the number and size”. In data set [5], the “length of formed Aβ fibrils” value fell in the range of 0.3 to 3 μm and the “diameter of formed Aβ fibrils” value is 3 to 6 nm.

For the substance “Leu-Pro-Phe-Phe-Asp (LPFFD; printed: Leu-Pro-Phe-Phe-Asp) [L5, reference compound]”, the “Inhibition (%) of Aβ aggregation” value in data set [1] is reported as 25.74%. For the same substance, in data set [5], the “length of formed Aβ fibrils” value fell in the range of 0.3 to 5 μm and the “diameter of formed Aβ fibrils” value lay within 4 to 8 nm.

Consider Vitamin E, for which, in data set [1], the “T1/2, time point at which the fluorescence intensity reaches the half-peak” value is listed as “fourth day”; the “ThT fluorescence intensity over time vs Aβ1-42 alone” value is given as “significantly weaker at each time point”; the “dose dependence of effect on Aβ fibril formation” value is reported as “dose-dependent”; the “effect on Aβ1-42 aggregation and fibril formation (ThT, FIG. 2)” value is listed as “remarkably inhibit”. In addition, in data set [1], the “Inhibition (%) of Aβ aggregation” value came out at 24.85% and the “most effective concentration for inhibition of Aβ fibril formation” value was “about 20 μmol/L”.
